Legend:
[1] = test system: ischemia-reperfusion injury in mice; experiment: Serum creatinine 24 h after bilateral renal artery clamping, NGAL intravenous; format: in vivo
Protocol: (§1) Purified endotoxin-free NGAL was administered either intravenously into mice via tail vein injections, subcutaneously, or intraperitoneally. In preliminary studies, animals were treated with three different concentrations of NGAL (50, 100, or 250 μg of a 250 μg/100 solution), subjected to 30 minutes of bilateral renal artery clamping one hour later, and examined after 24 hours of reflow. […] All subsequent studies as reported here were carried out using the 250 μg dose of NGAL. Comparisons were made between five different animal groups: non-ischemic controls (n=8), ischemic controls pre-treated with saline alone (n=8), NGAL pre-treated one hour prior to renal artery clamping (n=6), NGAL treated during renal artery clamping (n=6), and NGAL treated one hour post renal artery clamping (n=6).
(§2) Male C57BL/6 mice (20-25 gr; Charles River) were anesthetized with intraperitoneal pentobarbital (50 mg/kg) and placed on a heating pad under a warming light to maintain 37© core body temperature. Kidneys were exposed through an abdominal section and the right kidney was either removed or its vascular pedicle and ureter ligated. The vascular pedicle of the left kidney or both kidneys was clamped by a microaneurysm clip (Kent Scientific) for 30 minutes after right nephrectomy. This period of ischemia generated reproducible renal injury but minimized mortality. During the procedure, PBS (0.5 ml) was used to dampen the peritoneum. The animal was closed with 5-0 Nylon. Saline, NGAL, retinol-loaded retinol binding protein (RBP), enterochelin, or desferroxamine mesylate (DFO) were injected into the peritoneum or subcutaneously 15 min. prior to ischemia or 1-2 hr after reperfusion.
For some studies, the mice were allowed to recover in a warmed cage, and timed urine collections were obtained. […] The mice were killed, the kidneys perfusion fixed in situ with 4% paraformaldehyde in PBS, and both kidneys harvested. One half of each kidney was snap frozen in liquid nitrogen and stored at −70° C. until further processing; a sample was fixed in formalin, paraffin-embedded, and sectioned (4 μm). Paraffin sections were stained with hematoxylin-eosin and examined histologically. The other half of each kidney was embedded in OCT compound (Tissue-Tek) and frozen sections (4 μm) obtained for immunohistochemistry.

[2] = test system: ischemia-reperfusion injury in mice; experiment: Histopathology scoring of tubule damage (dilatation, casts, necrosis) after ischemia-reperfusion; format: in vivo; settings: NGAL before, during or after ischemia, 24 h reflow, vs saline controls
Protocol: Purified endotoxin-free NGAL was administered either intravenously into mice via tail vein injections, subcutaneously, or intraperitoneally. In preliminary studies, animals were treated with three different concentrations of NGAL (50, 100, or 250 μg of a 250 μg/100 solution), subjected to 30 minutes of bilateral renal artery clamping one hour later, and examined after 24 hours of reflow. […] All subsequent studies as reported here were carried out using the 250 μg dose of NGAL. […]
Kidney sections of 4 microns were stained with hematoxylin-eosin and scored for histopathologic damage to the tubules in a blinded fashion, as previously described by Yokota N. et al., Am J Physiol Renal Physiol 285: F319-F325, 2003 and Kjeldsen L. et al., Biochim Biophys Acta 1482: 272-283, 2000. Each parameter was assessed in five high power fields (40×) in the inner cortex and outer medullary regions (where the tubular damage was most evident), and an average determined for each section. […] Each parameter was scored on a scale of 0 to 4, ranging from none (O), mild (1), moderate (2), severe (3), to very severe/extensive (4).

[3] = test system: tubule epithelial cells; experiment: TUNEL apoptosis assay on kidney sections (nuclei per 100 cells); format: in vivo, mice; settings: 24 h reflow
Protocol: as §1
For the TUNEL assay to detect apoptotic nuclei, we utilized the ApoAlert DNA Fragmentation Assay Kit (Clontech). Paraffin sections were deparaffinized through zylene and descending grades of ethanol, fixed with 4% formaldehyde/PBS for 30 min at 4° C., permeabilized with proteinase K at room temperature for 15 min and 0.2% triton X-100/PBS for 15 min at 4° C., and incubated with a mixture of nucleotides and TdT enzyme for 60 min at 37° C. The reaction was terminated with 2×SSC, the sections washed with PBS, and mounted with Crystal/mount (Biomeda, Foster City, Calif.). TUNEL-positive apoptotic nuclei were detected by visualization with a fluorescent microscope. […] Merely TUNEL positive cells, in the absence of morphologic criteria, were not considered apoptotic. Slides were examined in a blinded fashion, and apoptosis was quantified by counting the number of TUNEL positive nuclei per 100 cells counted in an average of five high power (40×) fields in each section.

[4] = test system: tubule epithelial cells; experiment: PCNA proliferation assay on kidney sections; format: in vivo, mice; settings: 24 h reflow
Protocol: as §1
For detection of proliferating cells, sections were incubated with a monoclonal antibody to Proliferating Cell Nuclear Antigen (PCNA, 1:500 dilution, Upstate Biotechnology), and detection accomplished by immunoperoxidase staining as recommended by the manufacturer (ImmunoCruz Staining System, Santa Cruz Biotechnology). Slides were examined in a blinded fashion, and proliferation was quantified by counting the number of PCNA positive cells per 100 cells counted in an average of five high power (40×) fields in each section.

[5] = test system: mouse model of ATN or ischemia/reperfusion injury; experiment: Mouse model of ATN (30 min clamp, contralateral nephrectomy): plasma creatinine; format: in vivo, mice
Protocol: as §2
(§3) After 6 or 24 hr of reperfusion, heparinized plasma, urine and kidney samples were obtained to measure NGAL (polyclonal 1:500), Heme oxygenase-1 (Stressgen, 1:2000), E-cadherin (BD Transduction Labs, 1:2000), N-cadherin (BD Transduction Labs, 1:3000) and GAPDH (Chemicon International, 1:3000) using immunoblots. Plasma was also used for creatinine and blood urea nitrogen colorimetric assays. Sagittal sections of the kidney were fixed in 4% formalin, or were snap frozen for mRNA and protein analysis. Paraffin-embedded sections (5 μm) were stained with hematoxylin-eosin or by an in situ kit (Fluorescein-TUNEL, Roche) for apoptotic nuclei or for total nuclei (Toprol, Molecular Probes). For cell proliferation analysis, BrdU was injected into the peritoneum 1 hour before sacrifice, and cryostat sections were stained with anti-BrdU (Roche) according to the manufacturer.

[6] = test system: cortical tubules; experiment: Fluorescein-TUNEL: percentage of cortical tubules with TUNEL-positive cell; format: in vivo, mice; settings: 24 h after reperfusion, SEM; ischemic 11.5%, sham 0.5%
Excerpt: as §3

[7] = Cofactor-dependent ^55Fe binding to NGAL (10 kDa filter retention)
Protocol: The urine fraction was obtained by passing fresh urine sequentially through 10 kDa and 3 kDa membranes (YM-10 and YM-3, Amicon). The mixture was then washed three times on 10 kDa membrane (YM-10, Amicon). Iron-free enterochelin-loaded NGAL (rather than NGAL without siderophore) served as a positive control for iron capture. Ferric citrate (1 mM) or iron-loaded enterochelin (Sid:Fe, 50 μM) were used as competitors of ^55Fe binding.

B1: NGAL: Purified endotoxin-free recombinant NGAL expressed as GST fusion protein in bacteria, thrombin cleaved (protein, UniProt P80188 21-198, looked up)
Neutrophil …: QDSTSDLIPAPPLSKVPLQQNFQDNQFQGKWYVVGLAGNAILREDKDPQKMYATIYELKEDKSYNVTSVLFRKKKCDYWIRTFVPGCQPGEFTLGNIKSYPGLTSYLVRVVSTNYNQHAMVFFKKVSQNREYFKITLYGRTKELTSELKENFIRFSKSLGLPENHIVFPVPIDQCIDG
In the case of B1, the “protection from the tubular damage and azotemia” value ([1]; 250 μg NGAL one hour before 30 min bilateral renal artery clamping, 24 h reflow, vs saline, doses 50, 100, 250 μg tested) is reported as “significant protection from the tubular damage and azotemia”, the “serum creatinine at 24 hours of reflow” value ([1]; NGAL 250 μg iv during ischemia (Dur NGAL)) is reported as 1.5±0.2 mg/di and the “serum creatinine at 24 hours of reflow” value ([1]; NGAL 250 μg iv one hour after ischemia (Post NGAL)) is reported as 1.95±0.2 mg/di. The “serum creatinine at 24 hours of reflow” value ([1]; NGAL 250 μg iv one hour before ischemia (Pre NGAL), saline 2.6±0.28, non-ischemic 0.65±0.13) was 1.25 ± 0.3 mg/dL, the “histopathologic score (dilatation, casts, cell necrosis; scale 0 to 4)” value [2] was “significantly improved score” and the “apoptotic tubule epithelial cells (TUNEL-positive nuclei per hundred cells)” value ([3]; NGAL during ischemia) was 7.6%±0.8. The “apoptotic tubule epithelial cells (TUNEL-positive nuclei per hundred cells)” value ([3]; NGAL one hour after ischemia) was 8.5%±0.8, the “apoptotic tubule epithelial cells (TUNEL-positive nuclei per hundred cells)” value ([3]; NGAL one hour before ischemia, saline 12.6%±2.2) was 6.7%±1.6 and the “PCNA-positive tubule epithelial cells per hundred cells” value ([4]; NGAL during ischemia) was 14.9%±1.2. The “PCNA-positive tubule epithelial cells per hundred cells” value ([4]; NGAL one hour after ischemia) was 14.5%±1.2, the “PCNA-positive tubule epithelial cells per hundred cells” value ([4]; NGAL one hour before ischemia, saline 4.4%±1.2) was 19.1%±2.1 and the “plasma creatinine 24 hours after reperfusion” value (shortened to “plasma creatinine 24 hours”) ([5]; 1 μg NGAL (not protective)) was 3.09 ± 0.11 mg/dL. The “plasma creatinine 24 hours” value ([5]; 100 μg NGAL 15 minutes before clamping, untreated 3.16±0.17) was 1.18 ± 0.18 mg/dL, the plasma creatinine ([5]; NGAL 2 hours after ischemia (no protective effect)) was 3.12 ± 0.35 mg/dL and the “plasma creatinine 24 hours” value ([5]; NGAL one hour after reperfusion) was 1.60 ± 0.28 mg/dL. For the same molecule, the “protection against ATN (creatinine, FIG. 17A)” value ([5]; administered later than one hour after ischemia) was “ineffective”, the “percentage of cortical tubules with at least one TUNEL-positive tubular cell” value [6] was 2.9%±0.9 and the “NGAL molecules that bound iron” value ([7]; 30 μl of mouse urine) was “approximately 20%”. For the same molecule, the “retention of ^55Fe” value ([7]; with mouse urine fraction (<3,000 Da), washed on 10 kDa filter) was “permitted the retention of ^55Fe”.

Source: patent publication US8247376B2, “NGAL for reduction and amelioration of ischemic and nephrotoxic injuries” (The Trustees of Columbia University, priority 2004, dated 2012)
